Reference: PMC3741120, “A Sperm–Plasma β-N-Acetyl-D-Hexosaminidase Interacting with a Chitinolytic β-N-Acetyl-D-Hexosaminidase in Insect Molting Fluid” (PLoS ONE, 2013)

Tests used:
purified protein [1] = substrate: CC(=O)N[C@H]1[C@H](Oc2ccc([N+](=O)[O-])cc2)O[C@H](CO)[C@@H](O)[C@@H]1O; assay: purified protein; type: biochemical, Ostrinia furnacalis; details: Britton-Robinson buffer (pH of kinetics not given), 25°C, 30 min
purified protein [2] = substrate: CC(=O)N[C@H]1[C@H](Oc2ccc([N+](=O)[O-])cc2)O[C@H](CO)[C@H](O)[C@@H]1O; assay: purified protein; type: biochemical, Ostrinia furnacalis; details: Britton-Robinson buffer (pH of kinetics not given), 25°C, 30 min

B1: OfHex3 (Ostrinia furnacalis) (protein)
chain: NENEIKDPTPIVYEPSWVFKCIPNVGCQRAAHPQSMMTTNSSHVFYDSIDLCRTVCGRFGGIWPKPLTAGLSMQTVQMHPTHLRYDLSDVPAEARELIAQMTQVASSNLLAECRGNVTEVVDTPVVVYLVVTSENLDLTWDTDEKYDLDVQTKNQKVSVTITAATVYGARHGLETFTQLVTADRPEYSDQTRCALRVISGARIKDYPAYRHRGLVLDTSRHFIPMKDIKRTIDGMAASKLNVFHWHVTDSHSFPLESTRVPQFTRYGAYSSSEIYSAEEVRQLIKYAQIRGVRVVIEIDSPAHAGNGWQWGQDYGFGDLAVCVNTEPWRGLCIQPPCGQLNPANPTMYRVLRNLYKDLAEALPKPALFHMGGDEVFFPCWNSSEQIRAYMQEKGLNTTTEGFLRLWSEFHETILSIWDEELKAIGTDAQPVILWSSALTKSNYVQRFLNKDRYVIEVWEPLDSPLLMELLRLGYRTISVPKDVWYLDHGFWGSTKFSNWRRMYAYILPKSQHMLGGEVAMWSEYVDKEVLDTRIWPRAAAVAERLWADPMSTASAAEPRLQRFRSRLQARGLRPDAMSPAWCEQHDGRCL
notes: mature protein without signal peptide (residues 1-18 removed; ORF 609 residues); C-terminal 6xHis, N-terminal alpha-factor secretion signal; Pichia pastoris GS115; glycosylated, 75 kDa on SDS-PAGE
Purified protein [1]
  Km: 1627 µM
  kcat: 27.7 s⁻¹
  kcat/Km: 17000 M⁻¹ s⁻¹
Purified protein [2]
  Km: 2673 µM
  kcat: 5.63 s⁻¹
  kcat/Km: 2110 M⁻¹ s⁻¹
